Measurements as given in US20190352381A1 (Alexion, published 2019).
Read-outs that look alike come from different tables or passages of the source.

Legend:
[1] = target: T1, human properdin (human, UniProt P27918 28-469); assay: cell-based or functional assay
[2] = target: T1, human properdin; assay: binding kinetics at pH 6.0
[3] = target: T2, Human Albumin (human, UniProt P02768 25-609); assay: binding kinetics at pH 6.0
[4] = target: T3, Cynomolgus Albumin (cynomolgus, UniProt A2V9Z4 25-608); assay: binding kinetics at pH 6.0
[5] = target: T1, human properdin; assay: binding kinetics, biotinylated properdin capture method
[6] = target: T1, human properdin; assay: binding kinetics at pH 7.4
[7] = target: T2, Human Albumin; assay: binding kinetics at pH 7.4
[8] = target: T4, cynomolgus properdin (cynomolgus, UniProt A0A2K5V0Z6 29-470); assay: binding kinetics at pH 7.4
T4 construct: properdin of cynomolgus serum in the hemolysis assays; also called biotinylated cynomolgus properdin

[9] = target: T3, Cynomolgus Albumin; assay: binding kinetics at pH 7.4
[10] = target: T1, human properdin; assay: Octet bio-layer interferometry; streptavidin biosensors loaded with biotinylated human properdin, construct at 10 ug/mL
Experimental: All washes, dilutions, and measurements were performed in Kinetic buffer (FortéBio cat 185032) with the plate shaking at 1000 rpm. Streptavidin Biosensors (Forté Bio Cat:18-5019 lot: 1405301) were equilibrated in Kinetic buffer for 10 min and then loaded with 50 nm of biotinylated human properdin. For the association phase, 10 μg/mL of selected anti-properdin antibody or kinetics buffer blank was added to the biosensors preloaded with biotinylated human properdin, respectively.

[11] = target: T1, human properdin; assay: cell-based or functional assay; remark: listed apart in the source
[12] = target: T1, human properdin; assay: binding kinetics, biotinylated properdin capture method; remark: listed apart in the source
[13] = target: T4, cynomolgus properdin; assay: as above
[14] = target: T1, human properdin; assay: sensorgram kinetics (RU), biotinylated properdin capture method
[15] = target: T1, human properdin; assay: cell-based or functional assay; remark: listed apart in the source

B1: TPP-2225 (anti-Albumin LVP058 (G4S)3 Linker) (bispecific antibody)
chain: EVQLVESGGGLVKPGGSLRLSCAASGRPVSNYAAAWFRQAPGKEREFVSAINWQKTATYADSVKGRFTISRDNAKNSLYLQMNSLRAEDTAVYYCAAVFRVVAPKTQYDYDYWGQGTLVTVSSGGGGSGGGGSGGGGSLEVQLVESGGGLVQAGGSLRLSCAASGRISSIIHMAWYRQAPGKQRELVAEISRVGTTVYADSVKGRFTISRDDAKNTVTLQMNSLKPEDTAVYYCNALQYEKHGGADYWGQGTQVTVSS
notes: Single chain: anti-albumin VHH, (G4S)3 linker, non-humanized anti-properdin VHH LVP058; also called anti-Alb-LVP058
**Q.** How did the “IC50 (read off the curve)” value [1] turn out when B1 was run?
**A.** Its value is ~10 nM.

**Q.** What about the Kd [2] of the same binder?
**A.** The Kd was 2.57 nM.

**Q.** What about the Kd [3] of the same binder?
**A.** The Kd was 0.646 nM.

**Q.** And the Kd [4]?
**A.** The Kd was 2.3 nM.

**Q.** What about the Kd [5] of the same binder?
**A.** The Kd was 0.172 nM.

**Q.** And the koff [5]?
**A.** Its koff is 0.000349 s⁻¹.

**Q.** And the kon [5]?
**A.** The kon was 2.03e+06 M⁻¹ s⁻¹.

**Q.** And the Kd [6]?
**A.** The Kd was 0.172 nM.

**Q.** What about the Kd [7] of the same binder?
**A.** The Kd was 0.774 nM.

**Q.** And the Kd [8]?
**A.** Its Kd is 1.98 nM.

**Q.** What about the Kd [9] of the same binder?
**A.** The Kd was 7.07 nM.

B2: TPP-2224 (LVP058 (G4S)3-anti-Alb-tandem VHH) (bispecific antibody)
chain: LEVQLVESGGGLVQAGGSLRLSCAASGRISSIIHMAWYRQAPGKQRELVAEISRVGTTVYADSVKGRFTISRDDAKNTVTLQMNSLKPEDTAVYYCNALQYEKHGGADYWGQGTQVTVSSGGGGSGGGGSGGGGSEVQLVESGGGLVKPGGSLRLSCAASGRPVSNYAAAWFRQAPGKEREFVSAINWQKTATYADSVKGRFTISRDNAKNSLYLQMNSLRAEDTAVYYCAAVFRVVAPKTQYDYDYWGQGTLVTVSS
**Q.** How did the “IC50 (read off the curve)” value [1] turn out when B2 was run?
**A.** The value was ~20 nM.

B3: TPP-2223 (Anti-properdin control antibody without C1q binding domain) (antibody, human IgG1, kappa, V domains shown)
VH: QVQLVQSGAEVKKPGASVKVSCKASGYIFTNYPIHWVRQAPGQGLEWMGFIDPGGGYDEPDERFRDRVTMTRDTSTSTVYMELSSLRSEDTAVYYCARRGGGYYLDYWGQGTLVTVSS
VL: DIQMTQSPSSLSASVGDRVTITCRASQDISFFLNWYQQKPGKAPKLLIYYTSRYHSGVPSRFSGSGSGTDFTLTISSLQPEDFATYYCQHGNTLPWTFGQGTKVEIKR
**Q.** Which “IC50 (read off the curve)” value [1] does the source give for B3 here?
**A.** Its value is ~9 nM.

B4: TPP-3071 (anti-Albumin LVP058 (G4D)2 (G4) Linker) (bispecific antibody)
chain: EVQLVESGGGLVKPGGSLRLSCAASGRPVSNYAAAWFRQAPGKEREFVSAINWQKTATYADSVKGRFTISRDNAKNSLYLQMNSLRAEDTAVYYCAAVFRVVAPKTQYDYDYWGQGTLVTVSSGGGGDGGGGDGGGGEVQLVESGGGLVQAGGSLRLSCAASGRISSIIHMAWYRQAPGKQRELVAEISRVGTTVYADSVKGRFTISRDDAKNTVTLQMNSLKPEDTAVYYCNALQYEKHGGADYWGQGTQVTVSS
notes: Single chain: anti-albumin VHH, (G4D)2 G4 linker, non-humanized LVP058
**Q.** Does B4 bind [10]?
**A.** Result: binds

B5: TPP-3072 (anti-Albumin LVP058 (G4E)2 (G4) Linker) (bispecific antibody)
chain: EVQLVESGGGLVKPGGSLRLSCAASGRPVSNYAAAWFRQAPGKEREFVSAINWQKTATYADSVKGRFTISRDNAKNSLYLQMNSLRAEDTAVYYCAAVFRVVAPKTQYDYDYWGQGTLVTVSSGGGGEGGGGEGGGGEVQLVESGGGLVQAGGSLRLSCAASGRISSIIHMAWYRQAPGKQRELVAEISRVGTTVYADSVKGRFTISRDDAKNTVTLQMNSLKPEDTAVYYCNALQYEKHGGADYWGQGTQVTVSS
**Q.** For B5, which “IC50 (read off the curve)” value [11] is on record?
**A.** Its value is ~20 nM.

B6: TPP-2221 (LVP058_hG2-G4, VHH on silent human Fc) (Fc fusion)
chain: LEVQLVESGGGLVQAGGSLRLSCAASGRISSIIHMAWYRQAPGKQRELVAEISRVGTTVYADSVKGRFTISRDDAKNTVTLQMNSLKPEDTAVYYCNALQYEKHGGADYWGQGTQVTVSSRKCCVECPPCPAPPVAGPSVFLFPPKPKDTLMISRTPEVTCVVVDVSQEDPEVQFNWYVDGVEVHNAKTKPREEQFNSTYRVVSVLTVLHQDWLNGKEYKCKVSNKGLPSSIEKTISKAKGQPREPQVYTLPPSQEEMTKNQVSLTCLVKGFYPSDIAVEWESNGQPENNYKTTPPVLDSDGSFFLYSRLTVDKSRWQEGNVFSCSVMHEALHNHYTQKSLSLSLGK
**Q.** How did the “IC50 (read off the curve)” value [1] turn out when B6 was run?
**A.** The value was ~10 nM.

B7: TPP-2951 (Humanized anti-Albumin LVP058 (G4S)3 Linker (7-backmutations)) (bispecific antibody)
chain: EVQLVESGGGLVKPGGSLRLSCAASGRPVSNYAAAWFRQAPGKEREFVSAINWQKTATYADSVKGRFTISRDNAKNSLYLQMNSLRAEDTAVYYCAAVFRVVAPKTQYDYDYWGQGTLVTVSSGGGGSGGGGSGGGGSEVQLLESGGGLVQPGGSLRLSCAASGRISSIIHMAWFRQAPGKERELVSEISRVGTTVYADSVKGRFTISRDNSKNTLYLQMNSLKPEDTAVYYCNALQYEKHGGADYWGQGTLVTVSS
notes: Single chain: anti-albumin VHH, (G4S)3 linker, humanized LVP058 with 7 back mutations
**Q.** For B7, which “IC50 (read off the curve)” value [11] is on record?
**A.** The value was ~30 nM.

**Q.** What about the Kd [12] of the same binder?
**A.** Its Kd is 0.322 nM.

**Q.** And the koff [12]?
**A.** Its koff is 0.000574 s⁻¹.

**Q.** What about the kon [12] of the same binder?
**A.** Its kon is 1.78e+06 M⁻¹ s⁻¹.

**Q.** What about the Kd [13] of the same binder?
**A.** The Kd was 2.33 nM.

**Q.** What about the koff [13] of the same binder?
**A.** The koff was 0.00426 s⁻¹.

**Q.** What about the kon [13] of the same binder?
**A.** Its kon is 1.82e+06 M⁻¹ s⁻¹.

**Q.** And the Kd [5]?
**A.** The Kd was 0.301 nM.

**Q.** What about the koff [5] of the same binder?
**A.** The koff was 0.000567 s⁻¹.

**Q.** What about the kon [5] of the same binder?
**A.** The kon was 1.88e+06 M⁻¹ s⁻¹.

**Q.** And the Kd [6]?
**A.** Its Kd is 0.301 nM.

**Q.** What about the Kd [8] of the same binder?
**A.** The Kd was 2.33 nM.

B8: TPP-3261 (Humanized anti-Albumin LVP058 (G4S)3 Linker (3-backmutations)) (bispecific antibody)
chain: EVQLVESGGGLVKPGGSLRLSCAASGRPVSNYAAAWFRQAPGKEREFVSAINWQKTATYADSVKGRFTISRDNAKNSLYLQMNSLRAEDTAVYYCAAVFRVVAPKTQYDYDYWGQGTLVTVSSGGGGSGGGGSGGGGSEVQLVESGGGLVQPGGSLRLSCAASGRISSIIHMAWVRQAPGKQRELVSEISRVGTTVYADSVKGRFTISRDNSKNTLYLQMNSLRAEDTAVYYCNALQYEKHGGADYWGQGTLVTVSS
notes: Single chain: anti-albumin VHH, (G4S)3 linker, humanized LVP058 with 3 back mutations
**Q.** With B8 as the binder, how does the Kd [12] read?
**A.** The Kd was 0.485 nM.

**Q.** What about the koff [12] of the same binder?
**A.** Its koff is 0.000834 s⁻¹.

**Q.** What about the kon [12] of the same binder?
**A.** Its kon is 1.72e+06 M⁻¹ s⁻¹.

**Q.** What about the Kd [13] of the same binder?
**A.** The Kd was 3.08 nM.

**Q.** What about the koff [13] of the same binder?
**A.** Its koff is 0.00587 s⁻¹.

**Q.** What about the kon [13] of the same binder?
**A.** Its kon is 1.91e+06 M⁻¹ s⁻¹.

**Q.** What about the Kd [6] of the same binder?
**A.** Its Kd is 0.485 nM.

**Q.** And the Kd [8]?
**A.** Its Kd is 3.08 nM.

B9: AB007 (VHH)
VHH: QVQLVESGGGLVQAGGSLRLSCAASGRISSIIHMAWYRQAPGKQRELVAEISRVGTTVYADSVKGRFTISRDDAKNTVTLQMNSLKPEDTAVYYCNALQYEKHGGADYWGQGTQVTVSG
notes: Llama VHH, cloned and expressed with a 6x histidine tag; also called anti-properdin VHH AB007
**Q.** For B9, which Kd [14] is on record?
**A.** The Kd was 0.344 nM.

**Q.** What about the koff [14] of the same binder?
**A.** The koff was 0.000359 s⁻¹.

**Q.** What about the kon [14] of the same binder?
**A.** Its kon is 1.04e+06 M⁻¹ s⁻¹.

B10: AB008 (VHH)
VHH: QVQLVESGGGLRQTGESLRLSCTASGRIFEVNMMAWYRQAPGKQRELVAEISRVGTTTYADSVKGRFTISRDSAKNTVTLQMNSLKSEDTAVYYCNALQYDRYGGAEYWGQGTQVTVSG
notes: Llama VHH, cloned and expressed with a 6x histidine tag; also called anti-properdin VHH AB008
**Q.** For B10, which Kd [14] is on record?
**A.** Its Kd is 0.803 nM.

**Q.** What about the koff [14] of the same binder?
**A.** The koff was 0.00169 s⁻¹.

**Q.** What about the kon [14] of the same binder?
**A.** The kon was 2.11e+06 M⁻¹ s⁻¹.

B11: AB005 (VHH)
VHH: QVQVVESGGGLRQTGGSLRLSCTASGRIFEVNMMAWYRQAPGKQRELVAEISRVGTTVYADSVKGRFTISRDSAKNTVTLQMNSLKSEDTAVYYCNALQYDRYGGAEYWGQGTQVTVSS
**Q.** Which “IC50 (read off the curve)” value [15] does the source give for B11 here?
**A.** Its value is ~20 nM.

B12: AB006 (VHH)
VHH: QVQLAESGGGLVQAGDSLKLSCTASGRIFEVNMMAWYRQAPGKDRELVAEISRVGTTTYADSVKGRFTISRDSAKNTVTLQMNSLKSEDTAVYYCNALQYSRYGGAEYWGQGTQVTVSG
**Q.** How did the “IC50 (read off the curve)” value [15] turn out when B12 was run?
**A.** The value was ~30 nM.
